Reference: paper PMC11432006, “Functional Divergence in the Affinity and Stability of Non-Canonical Cysteines and Non-Canonical Disulfide Bonds: Insights from a VHH and VNAR Study” (International Journal of Molecular Sciences, 2024)

Biological target: T1, GFP-BC2-tag (Homo sapiens (beta-catenin-derived …, UniProt P35222))
T1 construct: also called BC2 peptide
T1 chain: PDRKAAVSHWQQ
Assay: SPR; Biacore 8k; antigen (lysozyme or GFP-BC2-tag) amine-coupled to a CM5 chip, single-domain antibody flowed over at 30 µL/min; running buffer 137 mM NaCl, 2.7 mM KCl, 10 mM Na2HPO4, 1.8 mM KH2PO4 pH 7.5, room temperature; 1:1 Langmuir model
Details: both partners purified

B1: BC2-Nb_(C55A_C110S) (VHH)
VHH: QVQLVESGGGLVQPGGSLTLSCTASGFTLDHYDIGWFRQAPGKEREGVSAINNSDDDTYYADSVKGRFTIFMNNAKDTVYLQMNSLKPEDTAIYYCAEARGSKRGRYEYDFWGQGTQVTVSS
notes: also called BC2-Nb mutant
binding result: no binding (tested: 5000 nM)
